This note sets out measurements from patent publication US20240342322A1 (NETRIS PHARMA, published 2024).

In the test the target is T1, recombinant human netrin-1 (R&D) (human, UniProt O95631 25-604, limits assumed).
T1 construct: Bought recombinant protein; also called h-netrin-1; human recombinant netrin-1
The test is described as follows: bio-layer interferometry. On the technique in general: Biolayer interferometry detects binding as a change in optical thickness at a sensor tip.

B1: recombinant human Vitronectin (other, UniProt P04004 20-478, looked up)
chain: DQESCKGRCTEGFNVDKKCQCDELCSYYQSCCTDYTAECKPQVTRGDVFTMPEDEYTVYDDGEEKNNATVHEQVGGPSLTSDLQAQSKGNPEQTPVLKPEEEAPAPEVGASKPEGIDSRPETLHPGRPQPPAEEELCSGKPFDAFTDLKNGSLFAFRGQYCYELDEKAVRPGYPKLIRDVWGIEGPIDAAFTRINCQGKTYLFKGSQYWRFEDGVLDPDYPRNISDGFDGIPDNVDAALALPAHSYSGRERVYFFKGKQYWEYQFQHQPSQEECEGSSLSAVFEHFAMMQRDSWEDIFELLFWGRTSAGTRQPQFISRDWHGVPGQVDAAMAGRIYISGMAPRPSLAKKQRFRHRNRKGYRSQRGHSRGRNQNSRRPSRATWLSLFSSEESNLGANNYDDYRMDWLVPATCEPIQSVFFFSGDKYYRVNLRTRRVDTVDPPYPRSIAQYWLGCPAPGHL
notes: also called h-Vitronectin
B1: the binding result is recorded as “binds”.
